Data: patent US20250320282A1 (MABYLON, published 2025)

T1: Ara h 2 (Arachis hypogaea allergen 2) (Arachis hypogaea, UniProt Q6PSU2 22-172)
T1 construct: Peanut allergen; also called nAra h 2; natural Ara h 2
T1 sequence: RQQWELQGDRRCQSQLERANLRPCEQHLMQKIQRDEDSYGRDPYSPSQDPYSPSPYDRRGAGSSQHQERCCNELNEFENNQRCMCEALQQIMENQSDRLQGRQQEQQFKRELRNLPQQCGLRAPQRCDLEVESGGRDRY

T2: Ara h 6 (Arachis hypogaea allergen 6) (Arachis hypogaea, UniProt Q647G9 22-145)
T2 construct: Peanut allergen; also called Ara h 6.0101; nAra h 6
T2 sequence: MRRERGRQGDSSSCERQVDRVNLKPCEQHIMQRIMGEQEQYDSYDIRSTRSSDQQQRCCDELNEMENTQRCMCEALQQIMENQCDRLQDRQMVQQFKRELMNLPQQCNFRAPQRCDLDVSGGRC

T3: Ara h 3 (Arachis hypogaea allergen 3) (Arachis hypogaea)
T3 construct: Peanut allergen; also called Ara h 3.0101; nAra h 3
T3 chain: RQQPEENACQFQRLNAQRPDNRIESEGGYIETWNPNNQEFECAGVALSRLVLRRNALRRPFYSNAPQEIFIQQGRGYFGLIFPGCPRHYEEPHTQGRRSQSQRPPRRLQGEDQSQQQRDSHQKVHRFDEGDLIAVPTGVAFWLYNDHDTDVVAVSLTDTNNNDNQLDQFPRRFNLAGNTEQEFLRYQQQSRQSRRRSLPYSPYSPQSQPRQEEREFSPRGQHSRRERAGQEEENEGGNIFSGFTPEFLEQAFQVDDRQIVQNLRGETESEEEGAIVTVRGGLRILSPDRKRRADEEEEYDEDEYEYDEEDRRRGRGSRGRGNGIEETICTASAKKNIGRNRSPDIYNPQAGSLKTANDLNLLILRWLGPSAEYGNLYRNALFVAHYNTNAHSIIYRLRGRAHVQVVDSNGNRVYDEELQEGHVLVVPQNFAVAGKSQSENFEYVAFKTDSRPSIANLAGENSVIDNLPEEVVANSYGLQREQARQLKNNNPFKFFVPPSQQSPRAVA


How the values were obtained:
[1] = molecular target: T1, Ara h 2 (Arachis hypogaea allergen 2); experiment: ELISA, antibody titrated on coated Ara h 2
Description: (§1) Monoclonal antibodies 2F8, 7G6, 17H9 and 15E3 were tested for their specificity against the major peanut allergens Ara h 1, 2, 3, and 6 by ELISA (enzyme linked immunosorbent assay). Briefly, ELISA plates were coated with respective Ara h proteins (Arah1: 0.5 ug/ml, Arah2: 0.01 ug/ml, Arah3: 0.1 ug/ml, Arah6: 0.05 ug/ml) overnight at 4° C. Afterwards, plates were blocked with BSA (2% in PBS) for 1 hour at room temperature. Antibody titration series starting from 3 ug/ml was prepared, added to the single ELISA plate wells and incubated for 2 h at room temperature. The read-out was performed by adding anti-hu-IgG-HRP (anti-human-IgG horseradish peroxidase; Jackson ImmunoResearch, West Grove, PA, USA) for 1 h at room temperature. Tetramethylbenzidine substrate solution (TMB, Sigma-Aldrich Chemie GmbH, Buchs, Switzerland) was added, then after 5 minutes of hydrolysis time, the reaction was stopped by the addition of 1 M H₂SO₄ and the absorbances were read at 450 nm.

[2] = molecular target: T2, Ara h 6 (Arachis hypogaea allergen 6); experiment: ELISA, antibody titrated on coated Ara h 6
Description: as §1

[3] = molecular target: T3, Ara h 3 (Arachis hypogaea allergen 3); experiment: ELISA, antibody titrated on coated Ara h 3
Description: as §1

| Binder | EC50 [1] | EC50 [2] | EC50 [3] |
| --- | --- | --- | --- |
| 15E3 (antibody, V domains shown, Fully human monoclonal antibody, wild-type variable regions; also called MY006-15E3; 15E3-human IgG1) VH: EVQLVESGGALVQPGGSLRLSCAASGFKFSTFYMTWIRQAPGKGLEWVANIKQDGSEKDYLDSVRGRFNISRDNAKSVLYLQMNTLSADDTGVYYCTRNGLQDSYSGDFFDHWGQGILVTVSS VL: QSVLTQPPSISAAPGQKVTISCSGTGSNIGHNYVSWYQQLPRTAPRLLIFDNTKRPSGIPDRFSGSKSGSSATLGITGLQTGDEAHYFCATWDADLSAVLFGGGTKLTVL | 3.78 ng/mL | 1.74 ng/mL | – |
| 17H9 (antibody, V domains shown, Fully human monoclonal antibody, wild-type variable regions; tested as IgG (detected with anti-human IgG); also called MY006-17H9) VH: QVQLEEYGGGVVQPGRSLRLSCVASGSTLGTYGMHWVRQAPGKGLEWVAIISPDGGHQDYADPVRGRFTVSRDNSKNTLYLQMDNLRVEDTAVYYCATTLCARTDCTWVRSDSWGQGTLVTVSS VL: ANVLTQSPGTLSLSPGERATLSCRASQRVSGDYLAWYQQKRGQAPRLLIYGASSRATGIPDRFSGSGSGTDFTLTISRLEPEDFAVYYCQHYNGPPVTFGQGTKLEIK | 2.2 ng/mL | – | 7.38 ng/mL |
